Results as given in US20040087777A1 (NEURALAB, published 2004).

Tests used:
Assay in all cases: rNET
… analog, Residue 2 = C = biological target: T1, … analog, Residue 2 = C
T1 peptide: DCEFRHDSGY
Procedure: (§1) The rNET epitope map assay provides information about the contribution of individual residues within the epitope to the overall binding activity of the antibody. rNET analysis uses synthesized systematic single substituted peptide analogs. Binding of an antibody being tested is determined against native peptide (native antigen) and against 19 alternative “single substituted” peptides, each peptide being substituted at a first position with one of 19 non-native amino acids for that position. A profile is generated reflecting the effect of substitution at that position with the various non-native residues. Profiles are likewise generated at successive positions along the antigenic peptide. The combined profile, or epitope map, (reflecting substitution at each position with all 19 non-native residues) can then be compared to a map similarly generated for a second antibody.
(§2) Antibodies were tested for binding against the native Aβ peptide [sequence] […] Residues 1-8 were systematically substituted with each of the 19 non-native residues for that position.

… analog, Residue 2 = D = biological target: T2, … analog, Residue 2 = D
T2 peptide: DDEFRHDSGY
Procedure: as §1, §2

… analog, Residue 2 = E = biological target: T3, … analog, Residue 2 = E
T3 peptide: DEEFRHDSGY
Procedure: as §1, §2

… analog, Residue 2 = G = biological target: T4, … analog, Residue 2 = G
T4 peptide: DGEFRHDSGY
Procedure: as §1, §2

… analog, Residue 2 = H = biological target: T5, … analog, Residue 2 = H
T5 peptide: DHEFRHDSGY
Procedure: as §1, §2

… analog, Residue 2 = I = biological target: T6, … analog, Residue 2 = I
T6 peptide: DIEFRHDSGY
Procedure: as §1, §2

… analog, Residue 2 = L = biological target: T7, … analog, Residue 2 = L
T7 peptide: DLEFRHDSGY
Procedure: as §1, §2

… analog, Residue 2 = M = biological target: T8, … analog, Residue 2 = M
T8 peptide: DMEFRHDSGY
Procedure: as §1, §2

… analog, Residue 2 = N = biological target: T9, … analog, Residue 2 = N
T9 peptide: DNEFRHDSGY
Procedure: as §1, §2

… analog, Residue 2 = P = biological target: T10, … analog, Residue 2 = P
T10 peptide: DPEFRHDSGY
Procedure: as §1, §2

… analog, Residue 2 = Q = biological target: T11, … analog, Residue 2 = Q
T11 peptide: DQEFRHDSGY
Procedure: as §1, §2

… analog, Residue 2 = R = biological target: T12, … analog, Residue 2 = R
T12 peptide: DREFRHDSGY
Procedure: as §1, §2

… analog, Residue 2 = S = biological target: T13, … analog, Residue 2 = S
T13 peptide: DSEFRHDSGY
Procedure: as §1, §2

… analog, Residue 2 = T = biological target: T14, … analog, Residue 2 = T
T14 peptide: DTEFRHDSGY
Procedure: as §1, §2

… analog, Residue 2 = V = biological target: T15, … analog, Residue 2 = V
T15 peptide: DVEFRHDSGY
Procedure: as §1, §2

… analog, Residue 2 = W = biological target: T16, … analog, Residue 2 = W
T16 peptide: DWEFRHDSGY
Procedure: as §1, §2

… analog, Residue 2 = Y = biological target: T17, … analog, Residue 2 = Y
T17 peptide: DYEFRHDSGY
Procedure: as §1, §2

… analog, Residue 3 = A = biological target: T18, … analog, Residue 3 = A
T18 peptide: DAAFRHDSGY
Procedure: as §1, §2

… analog, Residue 3 = C = biological target: T19, … analog, Residue 3 = C
T19 peptide: DACFRHDSGY
Procedure: as §1, §2

… analog, Residue 3 = D = biological target: T20, … analog, Residue 3 = D
T20 peptide: DADFRHDSGY
Procedure: as §1, §2

… analog, Residue 3 = F = biological target: T21, … analog, Residue 3 = F
T21 peptide: DAFFRHDSGY
Procedure: as §1, §2

… analog, Residue 3 = G = biological target: T22, … analog, Residue 3 = G
T22 peptide: DAGFRHDSGY
Procedure: as §1, §2

… analog, Residue 3 = H = biological target: T23, … analog, Residue 3 = H
T23 peptide: DAHFRHDSGY
Procedure: as §1, §2

… analog, Residue 3 = I = biological target: T24, … analog, Residue 3 = I
T24 peptide: DAIFRHDSGY
Procedure: as §1, §2

… analog, Residue 3 = L = biological target: T25, … analog, Residue 3 = L
T25 peptide: DALFRHDSGY
Procedure: as §1, §2

… analog, Residue 3 = M = biological target: T26, … analog, Residue 3 = M
T26 peptide: DAMFRHDSGY
Procedure: as §1, §2

… analog, Residue 3 = N = biological target: T27, … analog, Residue 3 = N
T27 peptide: DANFRHDSGY
Procedure: as §1, §2

… analog, Residue 3 = P = biological target: T28, … analog, Residue 3 = P
T28 peptide: DAPFRHDSGY
Procedure: as §1, §2

… analog, Residue 3 = Q = biological target: T29, … analog, Residue 3 = Q
T29 peptide: DAQFRHDSGY
Procedure: as §1, §2

… analog, Residue 3 = R = biological target: T30, … analog, Residue 3 = R
T30 peptide: DARFRHDSGY
Procedure: as §1, §2

… analog, Residue 3 = S = biological target: T31, … analog, Residue 3 = S
T31 peptide: DASFRHDSGY
Procedure: as §1, §2

… analog, Residue 3 = T = biological target: T32, … analog, Residue 3 = T
T32 peptide: DATFRHDSGY
Procedure: as §1, §2

… analog, Residue 3 = V = biological target: T33, … analog, Residue 3 = V
T33 peptide: DAVFRHDSGY
Procedure: as §1, §2

… analog, Residue 3 = W = biological target: T34, … analog, Residue 3 = W
T34 peptide: DAWFRHDSGY
Procedure: as §1, §2

… analog, Residue 3 = Y = biological target: T35, … analog, Residue 3 = Y
T35 peptide: DAYFRHDSGY
Procedure: as §1, §2
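Also: antibody binding measured against single-substituted peptide analogs, each epitope position replaced by every one of 19 non-native amino acids, compared with binding to the native Aβ peptide.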

B1: murine monoclonal antibody 3D6 (antibody, mouse IgG2b, V domains shown)
VH: EVKLVESGGGLVKPGASLKLSCAASGFTFSNYGMSWVRQNSDKRLEWVASIRSGGGRTYYSDNVKGRFTISRENAKNTLYLQMSSLKSEDTALYYCVRYDHYSGSSDYWGQGTTVTVSS
VL: not shown
notes: also called mAb 3D6; m3D6
**Q.** B1 was tested. Which OD (… analog, Residue 2 = C) did it give?
**A.** 0.553 OD

**Q.** What about the OD (… analog, Residue 2 = D) of the same binder?
**A.** 0.119 OD

**Q.** And the OD (… analog, Residue 2 = E)?
**A.** 0.563 OD

**Q.** And the OD (… analog, Residue 2 = G)?
**A.** 0.527 OD

**Q.** And the OD (… analog, Residue 2 = H)?
**A.** 0.534 OD

**Q.** What about the OD (… analog, Residue 2 = I) of the same binder?
**A.** 0.522 OD

**Q.** What about the OD (… analog, Residue 2 = L) of the same binder?
**A.** 0.482 OD

**Q.** What about the OD (… analog, Residue 2 = M) of the same binder?
**A.** 0.535 OD

**Q.** What about the OD (… analog, Residue 2 = N) of the same binder?
**A.** 0.525 OD

**Q.** And the OD (… analog, Residue 2 = P)?
**A.** 0.445 OD

**Q.** And the OD (… analog, Residue 2 = Q)?
**A.** 0.567 OD

**Q.** And the OD (… analog, Residue 2 = R)?
**A.** 0.562 OD

**Q.** What about the OD (… analog, Residue 2 = S) of the same binder?
**A.** 0.587 OD

**Q.** And the OD (… analog, Residue 2 = T)?
**A.** 0.552 OD

**Q.** And the OD (… analog, Residue 2 = V)?
**A.** 0.55 OD

**Q.** And the OD (… analog, Residue 2 = W)?
**A.** 0.553 OD

**Q.** What about the OD (… analog, Residue 2 = Y) of the same binder?
**A.** 0.547 OD

**Q.** What about the OD (… analog, Residue 3 = A) of the same binder?
**A.** 0.038 OD

**Q.** What about the OD (… analog, Residue 3 = C) of the same binder?
**A.** 0.222 OD

**Q.** And the OD (… analog, Residue 3 = D)?
**A.** 0.019 OD

**Q.** What about the OD (… analog, Residue 3 = F) of the same binder?
**A.** 0.034 OD

**Q.** What about the OD (… analog, Residue 3 = G) of the same binder?
**A.** 0.016 OD

**Q.** And the OD (… analog, Residue 3 = H)?
**A.** 0.016 OD

**Q.** What about the OD (… analog, Residue 3 = I) of the same binder?
**A.** 0.019 OD

**Q.** What about the OD (… analog, Residue 3 = L) of the same binder?
**A.** 0.019 OD

**Q.** What about the OD (… analog, Residue 3 = M) of the same binder?
**A.** 0.019 OD

**Q.** And the OD (… analog, Residue 3 = N)?
**A.** 0.024 OD

**Q.** And the OD (… analog, Residue 3 = P)?
**A.** 0.017 OD

**Q.** What about the OD (… analog, Residue 3 = Q) of the same binder?
**A.** 0.153 OD

**Q.** What about the OD (… analog, Residue 3 = R) of the same binder?
**A.** 0.015 OD

**Q.** And the OD (… analog, Residue 3 = S)?
**A.** 0.016 OD

**Q.** And the OD (… analog, Residue 3 = T)?
**A.** 0.015 OD

**Q.** What about the OD (… analog, Residue 3 = V) of the same binder?
**A.** 0.016 OD

**Q.** And the OD (… analog, Residue 3 = W)?
**A.** 0.149 OD

**Q.** What about the OD (… analog, Residue 3 = Y) of the same binder?
**A.** 0.016 OD
